The values below come from patent publication US8211429 (dated 2012).

Test [1] has as its target T1, murine NRP1 (mouse, UniProt P97333).
T1 chain: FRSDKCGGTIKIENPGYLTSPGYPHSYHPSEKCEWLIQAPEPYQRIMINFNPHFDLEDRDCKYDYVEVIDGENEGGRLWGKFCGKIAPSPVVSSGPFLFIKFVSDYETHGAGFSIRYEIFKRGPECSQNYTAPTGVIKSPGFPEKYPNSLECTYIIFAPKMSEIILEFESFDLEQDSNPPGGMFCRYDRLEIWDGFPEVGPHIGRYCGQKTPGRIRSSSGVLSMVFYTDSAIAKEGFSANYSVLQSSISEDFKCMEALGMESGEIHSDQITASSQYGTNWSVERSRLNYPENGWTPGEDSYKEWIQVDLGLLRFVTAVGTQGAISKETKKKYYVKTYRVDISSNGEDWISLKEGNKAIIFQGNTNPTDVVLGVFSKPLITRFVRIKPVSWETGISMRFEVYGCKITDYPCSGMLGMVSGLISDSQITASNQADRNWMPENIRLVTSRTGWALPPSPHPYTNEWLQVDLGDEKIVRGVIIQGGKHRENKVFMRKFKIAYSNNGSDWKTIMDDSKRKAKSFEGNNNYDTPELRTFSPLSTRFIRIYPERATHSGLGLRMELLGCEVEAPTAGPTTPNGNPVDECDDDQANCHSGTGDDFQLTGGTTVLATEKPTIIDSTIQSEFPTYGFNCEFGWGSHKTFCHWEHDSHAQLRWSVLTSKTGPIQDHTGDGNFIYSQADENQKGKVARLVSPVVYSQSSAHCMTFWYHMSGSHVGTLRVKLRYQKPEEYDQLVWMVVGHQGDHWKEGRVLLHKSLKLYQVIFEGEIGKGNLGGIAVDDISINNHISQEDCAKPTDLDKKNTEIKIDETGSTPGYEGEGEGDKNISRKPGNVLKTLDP
The test is described as follows: competition phage ELISA.

Test [2] deals with human NRP1 (human, UniProt O14786). Nature of the test: competition phage ELISA.

B1: YW107.4.58 (antibody, V domains shown)
VH: EVQLVESGGGLVQPGGSLRLSCAASGFTFSSYAMSWVRQAPGKGLEWVSQISPAGGYTNYADSVKGRFTISADTSKNTAYLQMNSLRAEDTAVYYCARELPYYRMSKVMDVWGQGTLVTVSS
VL: DIQMTQSPSSLSASVGDRVTITCRASQYISSYLAWYQQKPGKAPKLLIYGASSRASGVPSRFSGSGSGTDFTLTISSLQPEDFATYYCQQYKSSPRTFGQGTKVEIKR
In the case of B1, the IC50 in test [1] is 3.5 nM; in test [2], 0.73 nM.

B2: YW107.4.42 (antibody, V domains shown)
VH: EVQLVESGGGLVQPGGSLRLSCAASGFTFSSYAMSWVRQAPGKGLEWVSQISPAGGYTNYADSVKGRFTISADTSKNTAYLQMNSLRAEDTAVYYCARELPYYRMSKVMDVWGQGTLVTVSS
VL: DIQMTQSPSSLSASVGDRVTITCRASQWIHSYLAWYQQKPGKAPKLLIYGASSSASGVPSRFSGSGSGTDFTLTISSLQPEDFATYYCQQYYSSPLTFGQGTKVEIKR
As for B2, the IC50 in test [1] was 1.2 nM; in test [2], 0.81 nM.

B3: YW107.4.78 (antibody, V domains shown)
VH: EVQLVESGGGLVQPGGSLRLSCAASGFTFSSYAMSWVRQAPGKGLEWVSQISPAGGYTNYADSVKGRFTISADTSKNTAYLQMNSLRAEDTAVYYCARELPYYRMSKVMDVWGQGTLVTVSS
VL: DIQMTQSPSSLSASVGDRVTITCRASQYISSYLAWYQQKPGKAPKLLIYGASSRESGVPSRFSGSGSGTDFTLTISSLQPEDFATYYCQQYLSSPITFGQGTKVEIKR
For the molecule B3, the figures for the IC50 in test [1] and in test [2] were 1.7 nM and 0.3 nM, respectively.

B4: YW107.4.53 (antibody, V domains shown)
VH: EVQLVESGGGLVQPGGSLRLSCAASGFTFSSYAMSWVRQAPGKGLEWVSQISPAGGYTNYADSVKGRFTISADTSKNTAYLQMNSLRAEDTAVYYCARELPYYRMSKVMDVWGQGTLVTVSS
VL: DIQMTQSPSSLSASVGDRVTITCRASQYISSYLAWYQQKPGKAPKLLIYGASRRESGVPSRFSGSGSGTDFTLTISSLQPEDFATYYCQQYLNSPLTFGQGTKVEIKR
On to B4, for which the IC50 was found to be 1.7 nM in test [1] and 0.3 nM in test [2].

B5: YW107.4.20 (antibody, V domains shown)
VH: EVQLVESGGGLVQPGGSLRLSCAASGFTFSSYAMSWVRQAPGKGLEWVSQISPAGGYTNYADSVKGRFTISADTSKNTAYLQMNSLRAEDTAVYYCARELPYYRMSKVMDVWGQGTLVTVSS
VL: DIQMTQSPSSLSASVGDRVTITCRASQRTHSYLAWYQQKPGKAPKLLIYGASSRASGVPSRFSGSGSGTDFTLTISSLQPEDFATYYCQQYYGSPHTFGQGTKVEIKR
As for B5, the IC50 amounted to 33 nM in test [1] and 0.45 nM in test [2].

B6: YW107.4.55 (antibody, V domains shown)
VH: EVQLVESGGGLVQPGGSLRLSCAASGFTFSSYAMSWVRQAPGKGLEWVSQISPAGGYTNYADSVKGRFTISADTSKNTAYLQMNSLRAEDTAVYYCARELPYYRMSKVMDVWGQGTLVTVSS
VL: DIQMTQSPSSLSASVGDRVTITCRASQLTHSYLAWYQQKPGKAPKLLIYGASSRASGVPSRFSGSGSGTDFTLTISSLQPEDFATYYCQQYYSSPLTFGQGTKVEIKR
B6: the IC50 in test [1] came to 2 nM; in test [2], 0.93 nM.

B7: YW107.4.54 (antibody, V domains shown)
VH: EVQLVESGGGLVQPGGSLRLSCAASGFTFSSYAMSWVRQAPGKGLEWVSQISPAGGYTNYADSVKGRFTISADTSKNTAYLQMNSLRAEDTAVYYCARELPYYRMSKVMDVWGQGTLVTVSS
VL: DIQMTQSPSSLSASVGDRVTITCRASQPLHSYLAWYQQKPGKAPKLLIYGASSRASGVPSRFSGSGSGTDFTLTISSLQPEDFATYYCQQYYRSPLTFGQGTKVEIKR
As for B7, the IC50 in test [1] amounted to 2.7 nM; in test [2] it was 0.84 nM.

B8: YW107.4.17 (antibody, V domains shown)
VH: EVQLVESGGGLVQPGGSLRLSCAASGFTFSSYAMSWVRQAPGKGLEWVSQISPAGGYTNYADSVKGRFTISADTSKNTAYLQMNSLRAEDTAVYYCARELPYYRMSKVMDVWGQGTLVTVSS
VL: DIQMTQSPSSLSASVGDRVTITCRASQYTHSYLAWYQQKPGKAPKLLIYGASSRASGVPSRFSGSGSGTDFTLTISSLQPEDFATYYCQQYYSSPVTFGQGTKVEIKR
As for B8, the IC50 is 6 nM in test [1] and 0.24 nM in test [2].

B9: YW107.4.85 (antibody, V domains shown)
VH: EVQLVESGGGLVQPGGSLRLSCAASGFTFSSYAMSWVRQAPGKGLEWVSQISPAGGYTNYADSVKGRFTISADTSKNTAYLQMNSLRAEDTAVYYCARELPYYRMSKVMDVWGQGTLVTVSS
VL: DIQMTQSPSSLSASVGDRVTITCRASQYISSYLAWYQQKPGKAPKLLIYGASSGESGVPSRFSGSGSGTDFTLTISSLQPEDFATYYCQQYIISPITFGQGTKVEIKR
Turning to B9, the IC50 in test [1] came out at 4 nM; in test [2] it was 0.44 nM.

B10: YW107.4.66 (antibody, V domains shown)
VH: EVQLVESGGGLVQPGGSLRLSCAASGFTFSSYAMSWVRQAPGKGLEWVSQISPAGGYTNYADSVKGRFTISADTSKNTAYLQMNSLRAEDTAVYYCARELPYYRMSKVMDVWGQGTLVTVSS
VL: DIQMTQSPSSLSASVGDRVTITCRASQYISSYLAWYQQKPGKAPKLLIYGASSRASGVPSRFSGSGSGTDFTLTISSLQPEDFATYYCQQYIVSPLTFGQGTKVEIKR
Take B10: the IC50 in test [1] turned out to be 2.6 nM; in test [2], 0.45 nM.

B11: YW107.4.41 (antibody, V domains shown)
VH: EVQLVESGGGLVQPGGSLRLSCAASGFTFSSYAMSWVRQAPGKGLEWVSQISPAGGYTNYADSVKGRFTISADTSKNTAYLQMNSLRAEDTAVYYCARELPYYRMSKVMDVWGQGTLVTVSS
VL: DIQMTQSPSSLSASVGDRVTITCRASQWTHSYLAWYQQKPGKAPKLLIYGASRLESGVPSRFSGSGSGTDFTLTISSLQPEDFATYYCQQYFISPHTFGQGTKVEIKR
For the molecule B11, the IC50 in test [1] turned out to be 5.5 nM; in test [2], 0.43 nM.

B12: YW107.4.12 (antibody, V domains shown)
VH: EVQLVESGGGLVQPGGSLRLSCAASGFTFSSYAMSWVRQAPGKGLEWVSQISPAGGYTNYADSVKGRFTISADTSKNTAYLQMNSLRAEDTAVYYCARELPYYRMSKVMDVWGQGTLVTVSS
VL: DIQMTQSPSSLSASVGDRVTITCRASQYTHSYLAWYQQKPGKAPKLLIYGASSRASGVPSRFSGSGSGTDFTLTISSLQPEDFATYYCQQYYSSPITFGQGTKVEIKR
As for B12, the IC50 came out at 3.4 nM in test [1] and 0.1 nM in test [2].

B13: YW107.4.33b (antibody, V domains shown)
VH: EVQLVESGGGLVQPGGSLRLSCAASGFTFSSYAMSWVRQAPGKGLEWVSQISPAGGYTNYADSVKGRFTISADTSKNTAYLQMNSLRAEDTAVYYCARELPYYRMSKVMDVWGQGTLVTVSS
VL: DIQMTQSPSSLSASVGDRVTITCRASQYIHSYLAWYQQKPGKAPKLLIYGASRRASGVPSRFSGSGSGTDFTLTISSLQPEDFATYYCQQYYGTPHTFGQGTKVEIKR
Consider B13, for which the results for the IC50 in test [1] and in test [2] were 7.8 nM and 0.58 nM, respectively.

B14: YW107.4.51 (antibody, V domains shown)
VH: EVQLVESGGGLVQPGGSLRLSCAASGFTFSSYAMSWVRQAPGKGLEWVSQISPAGGYTNYADSVKGRFTISADTSKNTAYLQMNSLRAEDTAVYYCARELPYYRMSKVMDVWGQGTLVTVSS
VL: DIQMTQSPSSLSASVGDRVTITCRASQRISSYLAWYQQKPGKAPKLLIYGASRRESGVPSRFSGSGSGTDFTLTISSLQPEDFATYYCQQYKLSPLTFGQGTKVEIKR
Regarding B14, the figures for the IC50 in test [1] and in test [2] were 12 nM and 2 nM, respectively.

B15: YW107.4.76b (antibody, V domains shown)
VH: EVQLVESGGGLVQPGGSLRLSCAASGFTFSSYAMSWVRQAPGKGLEWVSQISPAGGYTNYADSVKGRFTISADTSKNTAYLQMNSLRAEDTAVYYCARELPYYRMSKVMDVWGQGTLVTVSS
VL: DIQMTQSPSSLSASVGDRVTITCRASQWVHSYLAWYQQKPGKAPKLLIYGASSRASGVPSRFSGSGSGTDFTLTISSLQPEDFATYYCQQYYGTPITFGQGTKVEIKR
For B15, the IC50 came to 3.9 nM in test [1] and 0.34 nM in test [2].

B16: YW107.4.33a (antibody, V domains shown)
VH: EVQLVESGGGLVQPGGSLRLSCAASGFTFSSYAMSWVRQAPGKGLEWVSQISPAGGYTNYADSVKGRFTISADTSKNTAYLQMNSLRAEDTAVYYCARELPYYRMSKVMDVWGQGTLVTVSS
VL: DIQMTQSPSSLSASVGDRVTITCRASQYISSYLAWYQQKPGKAPKLLIYGASRRASGVPSRFSGSGSGTDFTLTISSLQPEDFATYYCQQYIGSPITFGQGTKVEIKR
In test [2], B16 gave an IC50 of 0.31 nM.

B17: YW107.4.59 (antibody, V domains shown)
VH: EVQLVESGGGLVQPGGSLRLSCAASGFTFSSYAMSWVRQAPGKGLEWVSQISPAGGYTNYADSVKGRFTISADTSKNTAYLQMNSLRAEDTAVYYCARELPYYRMSKVMDVWGQGTLVTVSS
VL: DIQMTQSPSSLSASVGDRVTITCRASQRIHSYLAWYQQKPGKAPKLLIYGASSRASGVPSRFSGSGSGTDFTLTISSLQPEDFATYYCQQYYISPLTFGQGTKVEIKR
On to B17, for which the figures for the IC50 in test [1] and in test [2] were 26 nM and 1.8 nM, respectively.
